The nanobody polyreactivity screen of Harvey et al. (2022)

Experiment: yeast display, Sf9 membrane polyspecificity reagent, FACS + sequencing; frameworks hold sequencing errors
Outline: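 A synthetic nanobody library was expressed on Saccharomyces cerevisiae BJ5465 by galactose induction for 36–48 hours. The library was stained for 1 hour at 4 °C with 10% biotinylated, detergent-solubilized Sf9 membrane reagent and enriched with streptavidin microbeads before FACS. Low and high (top ~1%) gates were set on anti-HA fluorescence for expression and streptavidin fluorescence for reagent binding, and each polyreactivity label reflects the gate of origin.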

QVQLVESGGGLVQAGGSLRLSCAASGSIFYHNAMGWYRQAPGKERELVAAITWSGSTTYYADSVKGRFTISRDYAKNTVYLQMNSLKPEDTAVYYCNAGNRHGHYDYYWGQCTQVTVSS
polyreactivity (PSR sort gate): low polyreactivity

QVQLVESGGGLVQAGGSLRLSCAASGITFVVYAMGCYRPAPGKERELVASITYSGGSTYYADSVQGRFTISRDNAKNTVYLQMTSLKPEDTAVYYCNADGYTIYYLPYSDYDAYDYWGQGTQVTVSS
polyreactivity (PSR sort gate): low polyreactivity

QVQLVESGGGLVQAGGSLRLSCAASGITFYRYAMGWYRQAPGKERELVAAISRSGGSTYYADSVKGRFTISRDNAKNTVYLQMNSLKPEDTAVDYCAAYILGNRDGYDYWGQGTQVTVSS
polyreactivity (PSR sort gate): high polyreactivity

QVQLVESGGGLVQAGGSLRLSCAASGITFNSYAKGWYRQAPGKERELVASISWIGGSTYYADSVKLRFTISRDNAKNTVYLQMNSLKPEDTAVYYCAVDKGTDYYYEVDYWGQGTQVTVSS
polyreactivity (PSR sort gate): low polyreactivity

QVQLVESGGGLVQAGGSLRLSCAASGRIFLGNVMGWYRQAPGKERELVAAISSGGSTNYADSVKGRFTISRDNAKNTVYLQMNSLKPEDTAVYYCAAYFVRDWKLYYYWGQGTQVTVSS
polyreactivity (PSR sort gate): low polyreactivity

QVQLVESGGGLVQAGGSLRLSCAASGIIFAYNAMGWYRQAPGKERELVAAISVIGGTTYYADSVKGRFTISRDNAKNTVYLQMNSLKPEDTAVYYCAVDSVQYGGGYERLHELYYWGQGTQVTVSS
polyreactivity (PSR sort gate): low polyreactivity

QVQLVVSGGGLVQAGGSLRLSCAASGSIFLVNVMGGDRQAPGKERELVAAITWSGGRTYYADSVKGRFTISRDNAKNTVYLPRNSRLPEDTAVYYCAAQTPRFVWQKGPLDSEDYWGQGTQVTVSS
polyreactivity (PSR sort gate): high polyreactivity

QVQLVESGGGLVQAGGSLRLSCAASGRIFSYYARGWYRQAPGKERELVATINSGGSTNYADSVKGRFTISRDNAKNTVYLLMNSLKPEDTAVYYCAASPVWWYDYWGQGTQVTVSS
polyreactivity (PSR sort gate): low polyreactivity

QVQLVESGGGLVQAGGSLRLSCAPSGSIFGINARAWYRQAPGKERELVAAISSGGSTNNADSVKGRFTISRDNAKNTVYFQMNSLKPEDTAVYYCAARLYYVRYNYWGQGTQGTVSS
polyreactivity (PSR sort gate): high polyreactivity

QVQLVESGGGLVQAGGSLRLSCAASGRTFRYNTMGWYRQAPGKERELVAITYRGGSTYADSVKGRFTISRDNAKNTVYLQMNSLKPEDTAVYYCAKVVNWCRGYGGTDHYYWGQGTQVTVSS
polyreactivity (PSR sort gate): high polyreactivity

QVQLVESGGGIVQAGGRLRLSCAASGYIFDIYAMGWNRQAPGKERELDADITRSGGGTYYADSVKGRFTISRDNAKNTVYLQMNSLKPEDTAVYYCAAESYVYGGSDYDYWGQGTQVTVSS
polyreactivity (PSR sort gate): low polyreactivity

QVQLVESGGGLVHAGGSLRLSCAASGSIFVPYALGWYRQAPGKDRELVAAMTSSGSSTYYADSVKGRFTISRDNAKNTVYLQMNSLKPDDTAGYYCAADYFDWEGNGYYYWGQGNQVTVSS
polyreactivity (PSR sort gate): high polyreactivity

QGQLVESGGGLVQAGGRLRLTCAASGSIFAGNAMGWYRQAPGKERELVAAIRWSTGSTYYADSVKGRFTISRDNAKNTVYLQLNSLKPEDTAVYYCAATDTTFYGIVRYEYWGQGTQVTVSS
polyreactivity (PSR sort gate): low polyreactivity

QVQLVESGGGLVQAGGSLRLSCAASGSIFAAYAMGGYRQAPGKERELVATIRWTSGSTYYADSVKGRFTISRDNAKNTVYLQMNSLKPEDTAVFYCAAQKNKYYWPRFGYWGQGTQVTGSS
polyreactivity (PSR sort gate): high polyreactivity

QVQLVESGGGLVQAGGSLRLSCAASGRIFRGYAMGSYRQETGKETELVAAISRSGGSTYYADSVKGRFTISRDNAKNTVYLQMNILKPEDTAVYYCNTKYVRYYRRYDSWGQGTQVTVSS
polyreactivity (PSR sort gate): high polyreactivity

QVQLVESGGGLVQAGGSLRLSCAASGFIFYIYAMGWYRQAPGKERELVAAISWNGGSTYYADSVKGRFTISRDNAKNTVYLQMNSLKPEDTAVYYCATLARYRYGTGRFDYCGQGTQVTVSS
polyreactivity (PSR sort gate): high polyreactivity

QVQLVESGRGLVQAGCSLRLTCAASGSIFPQYAMGWYRQAPGQERELVAAITRSGGGTHYADSVKGRFTISRDNAKNTVYLQMNSLKPEDTAVYYCAKAGYRSEFEYWGQGTQVTVSS
polyreactivity (PSR sort gate): low polyreactivity

QVQLVESGGGLVQAGGSLRLSCPASGSIFYYYAMGWYRQEPGKERELVATITWNGAGTFYADSVKGRFTISRDNAKNTVYLQMNSLKPEDTAVYYCAASWYGESGYDYWGQGSQVTVSS
polyreactivity (PSR sort gate): low polyreactivity

QVQLVESGGGLVQAGGSLRLSCAASGRTFSFYAMGWYRQAPGKERELVAGIDWDDGSTSYADSVKGRFTISRDNAKNTVYLQMNSLKPEDTEVYYCAADIGYDVYNDYDYWGQGTQVTVSS
polyreactivity (PSR sort gate): low polyreactivity

QVQLVESGGGLVQAGGSLRLSCAASGSTFYAYAMGWYRQAPGKERELVAAISSDGSTNYADSVKGRFTISRDNAKNTVYLQMNSLKPEDTAVYYCAADDNGAWVRMDYWGQGTQVTVSS
polyreactivity (PSR sort gate): low polyreactivity

QVQLVESGGGLVQAGGSLRLSCAASGFTFPWYAMGWYIQAPGKERELVASISYRGDSTYYADSVKGRFTISRDNAKNTVYLQMNSLKPEDTAVYYCNKRLASYYLPGFDYWGQGTQVTVSS
polyreactivity (PSR sort gate): low polyreactivity

QVQLVESGGGLVQAGGSLRLSCAASGFTFGSYAMGWYRQAPGKERELVAAITWSGGSTYYADSVKGRFTISRDNAKNTVYLQMNSLKPEDTAVYYCNAEIRYYGYDYWGQGTQVTVSS
polyreactivity (PSR sort gate): high polyreactivity

QVQLVESGGGLVQAGGSLRLSCAASGRIFSFNGMGWYRQAPGKERELVAAITSSGGRTYYADSVKGRFTISRDNAKNTVYLQMNSLKPEDTAVYYCAAELAWEYYWGQGTQVTVSS
polyreactivity (PSR sort gate): low polyreactivity

QVQLVESGGGLVQAGGSLRLTCAASGFTFDQYAMGWYRQEPGKERELVAAISFDGSSTYYADSVKGRFTISRDNAKNTVYLQMNSLKPEDTAVYYCNAAVRGYSSLYRYGYWGQGTQVTVSS
polyreactivity (PSR sort gate): high polyreactivity

QVQLVESGGGLVQAGGSLRLSCAASGFTFDNYAMGWYRQAPGKERELVAAINWSGDRTYYADSVKGRFTISRDNAKNTVYLQMNSQIPEDTAVYYCNAVTSWAGSLDYWGQGTQVTVSS
polyreactivity (PSR sort gate): high polyreactivity

QVQLVESGGGLVQAGGSLRLSCAASGRTFRQYAMGWYRQAPGKERELVATISSGGSTYYADSVKGRFTISRDNAKNTVYLHMNSLKPEDTAVYYCNAEGQWSRAPRDYWGQGTQVTVSS
polyreactivity (PSR sort gate): low polyreactivity

QVQLVESGGGLVQAGGSLRLSCAASGRTFVSYAMGWYRQAPGKETELVAAIDSSGTSTYYADSVKGRFTISRDNAKNTVYLQMNSLKPEDTAVYYCAKAWPDHWYSRYDYWGQGTQVTVSS
polyreactivity (PSR sort gate): low polyreactivity

QVQLVESGGGLFQAGGSLRLSCAASGFTFYGYAMAWYRHAPGKERELVAAITFRGDRTYYADSVKGRFTISRDNAKNTVYLQINSLKPEDTAVYYCAAVRPSGWYSYLSLYIVRRGYWGQGTQVTVSS
polyreactivity (PSR sort gate): low polyreactivity

QVQLVESVGGLVQAGGSLRLSCAASGSIFVKNAMGWYRQAPGKERELVAVITIRTATTYYADSVKGRFTISRDNAKNTVYLQMNSLKPEDTAVYYCAAAKRQRGYLQREYDYWGQGTQVTVSS
polyreactivity (PSR sort gate): low polyreactivity

QVQLVESGGGLVQAGGSLRLSCAASGRIFFPYAMGWYRQAPGKEREFVAAITTGCGSTYYADSVKGRFTISRDNAKNTVYLQMNSLKPEDTAVYYCAKRTYSRKFRGAYNYWGQGTQVTVSS
polyreactivity (PSR sort gate): high polyreactivity

QVQLVESGGGLVQAGGSLRLSCAASGRTFKHYVMGWYRQAPGKERELVATISGGGGTYFADSVKGRFTISRYNAKYTVYLQMNSLKPEVTAVYYCAARYPRGSRTWSFDSNKQRDYWGQGTQVTVSS
polyreactivity (PSR sort gate): low polyreactivity
